Source: US8008547B2, “Glyphosate-N-acetyltransferase (GAT) genes” (E.I. duPont de Nemours, priority 2000, dated 2011)

Assay: Standard protocol for determination of kcat and KM (continuous spectrophotometric assay, Acetyl CoA hydrolysis at 235 nm)
Type: biochemical
Conditions: purified protein, about 23° C., 0.2 mM acetyl CoA; for Kcat: 20 mM HEPES pH 6.8, 10% ethylene glycol; for Km: pH 6.8, glyphosate 0.125 to 10 mM
Summary of the method: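 KM from initial rates over 0.125–10 mM glyphosate, fitted by Lineweaver-Burke transformation of Michaelis-Menten; kcat/KM computed as kcat divided by KM. Continuous spectrophotometric read of acetyl-CoA hydrolysis at 235 nm.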

| Molecule | Kcat | Km |
| --- | --- | --- |
| SEQ ID NO: 461: GAT polypeptide (protein, 11_3C12, GAT polypeptide) MIEVKPINAEDTYELRHRILRPNQPLEVCMYETDLLRGAFHLGGFYGGKLISIASFHQAEHPDLQGQKQYQLRGMATLEGYRDQKAGSSLIRHAEQLLRKRGADLLWCNARTSASGYYKKLGFSEQGEIFETPPVGPHILMYKRIT | 0.8178 s⁻¹ | – |
| SEQ ID NO: 462: GAT polypeptide (protein, 11_3C3, GAT polypeptide) MIEVKPINAEDTYELRHKILRPNQPIEACMYESDLLRGALHLGGYYRGKLISIASFHQAEHSELQGQKQYQLRGMATLEGYREQKAGSSLIKHAEEILRKRGADLLWCNARTSASGYYKKLGFSEQGEVFDTPPVGPHILMYKRIT | 3.567 s⁻¹ | 220 µM |
| SEQ ID NO: 463: GAT polypeptide (protein, 11_3C6, GAT polypeptide) MLEVKPINAEDTYELRHKILRPNQPIEACMFESDLLRGAFHLGGFYGGKLISIASFHQAEHSDLEGQKQYQLRGMATLEGYREQKAGSTLIRHAEEILRKRGADLLWCNARTSASGYYKKLGFSEQGEIFDTPPVGPHILMYKRIT | 3.074 s⁻¹ | 210 µM |
| SEQ ID NO: 464: GAT polypeptide (protein, 11_3D6, GAT polypeptide) MIEVKPINAEDTYELRHRILRPNQPIEVCMYETDLLRGAFHLGGFYRGKLISIASFHQAEHSDLQGQKQYQLRGMATLEGYREQKAGSSLIKHAEQILRKRGADLLWCNARTSASGYYKKLGFSEQGEVFDTPPVGPHILMYKRLT | 0.922 s⁻¹ | – |
| SEQ ID NO: 465: GAT polypeptide (protein, 1_1G12, GAT polypeptide) MLEVKPINAEDTYELRHRILRPNQPIEVCMYETDLLRGAFHLGGFYGGKLISIASFHQAEHSELQGQKQYQLRGMATLEGYRDQKAGSSLIKHAEEILRKRGADLLWCNARTSASGYYKKLGFSEQGEVFETPPVGPHILMYKRLT | 0.9747 s⁻¹ | – |
| SEQ ID NO: 466: GAT polypeptide (protein, 1_1H1, GAT polypeptide) MIEVKPINAEETYELRHKILRPNQPIEACMYESDLLRGSFHLGGFYRGQLISIASFHKAEHSELQGQKQYQLRGMATLEGFREQKAGSSLIRHAEEILRNKGADLLWCNARTTASGYYKRLGFSEHGEVFETPPVGPHILMYKRIT | 4.85 s⁻¹ | 1800 µM |
| SEQ ID NO: 277: GAT polypeptide (protein, 10_2B8, GAT polypeptide) MIEVKPINAEDTYEIRHRILRPNQPLEACKYETDLLGGTFHLGGYYRGKLISIASFHQAEHPELEGQKQYQLRGMATLEEYREQKAGSTLIRHAEELLRKKGADLLWCNARTSASGYYKKLGFSEQGEVYDTPPVGPHILMYKKLT | 1.807 s⁻¹ | 1100 µM |
| SEQ ID NO: 467: GAT polypeptide (protein, 1_1H2, GAT polypeptide) MIEVKPINAEDTYELRHRILRPNQPLEACMYESDLLRGSFHLGGFYRGKLISIASFHQAEHSELEGQKQYQLRGMATLEGFREQKAGSSLIRHAEEILRKRGADLLWCNARTTAAGYYKKLGFSEQGEIFDTPPVGPHILMYKRIT | 2.73 s⁻¹ | 440 µM |
| SEQ ID NO: 468: GAT polypeptide (protein, 1_1H5, GAT polypeptide) MIEVKPINAEDTYEIRHRILRPNQPLEACMYESDLLRGSFHLGGFYRGKLISIASFHQAEHSDLEGQKQYQLRGMATLEGYRDQKAGSSLIRHAEQILRKRGADLLWCNARTTAAGYYKRLGFSEQGEVFDTPPVGPHILMYKKLT | 1.57 s⁻¹ | 1500 µM |
| SEQ ID NO: 469: GAT polypeptide (protein, 1_2A12, GAT polypeptide) MIEVKPINAEDTYELRHRILRPNQPIEACMYESDLLRGSFHLGGFYRGKLISIASFHQAEQSELEGQKQYQLRGMATLEGYRDQKAGSTLIKHAEEILRKKGADLLWCNARTSAAGYYKRLGFSEQGEIFDTPPVGPHILMYKRLT | 3.82 s⁻¹ | 1300 µM |
| SEQ ID NO: 470: GAT polypeptide (protein, 1_2B6, GAT polypeptide) MIEVKPINAEETYELRHKILRPNQPLEACMYETDLLRGSFHLGGFYRGKLISIASFHQAEHSELEGQKQYQLRGMATLEGFRDQKAGSSLIKHAEEILRKRGADLLWCNARTSASGYYKKLGFSEQGEIFETPPVGPHILMYKRLT | 2.3 s⁻¹ | 580 µM |
| SEQ ID NO: 471: GAT polypeptide (protein, 1_2C4, GAT polypeptide) MLEVKPINAEETYELRHKILRPNQPIEACMYETDLLRGSFHLGGFYRGQLISIASFHQAEHSDLQGQKQYQLRGMATLEGYREQKAGSTLIKHAEELLRKKGADLLWCNARTTAAGYYKKLGFSEQGEVFDTPPVGPHILMYKKIT | 3.22 s⁻¹ | 800 µM |
| SEQ ID NO: 472: GAT polypeptide (protein, 1_2D2, GAT polypeptide) MIEVKPINAEDTYELRHKILRPNQPLEACMYESDLLRSAFHLGGFYRGKLISIASFHKAEHSELQGQKQYQLRGMATLEGYRDQKAGSSLIRHAEEILRKRGADMLWCNARTSAAGYYKRLGFSEQGEVFDTPPVGPHILMYKRIT | 2.07 s⁻¹ | 1200 µM |
| SEQ ID NO: 473: GAT polypeptide (protein, 1_2D4, GAT polypeptide) MIEVKPINAEDTYELRHRILRPNQPIEACMYESDLLRGSFHLGGFYRGKLISIASFHQAEHSDLQGQKQYQLRGMATLEGYREQKAGSSLIKHAEQLLRKKGADMLWCNARTSAAGYYKRLGFSEHGEIFETPPVGPHILMYKRIT | 3.03 s⁻¹ | 1200 µM |
| SEQ ID NO: 474: GAT polypeptide (protein, 1_2F8, GAT polypeptide) MLEVKPINAEDTYELRHRILRPNQPLEACMYETDLLRGSFHLGGFYRGKLISIASFHQAEHSELEGQKQYQLRGMATLEGYRDQKAGSSLIRHAEEILRKRGADMLWCNARTTAAGYYKKLGFSEQGEIYDTPPVGPHILMYKKLT | 2.68 s⁻¹ | 1900 µM |
| SEQ ID NO: 475: GAT polypeptide (protein, 1_2H8, GAT polypeptide) MIEVKPINAEETYELRHKILRPNQPLEACMYETDLLRGAFHLGGFYRGKLISIASFHQADHSELQGQKQYQLRGMATLEGYREQKAGSTLIRHAEQILRKRGADLLWCNARTSAAGYYKKLGFSEHGEIFETPPVGPHILMYKRLT | 2.35 s⁻¹ | 480 µM |
| SEQ ID NO: 476: GAT polypeptide (protein, 1_3A2, GAT polypeptide) MIEVKPINAEDTYELRHRILRPNQPIEACMYESDLLRGAFHLGGFYRGKLISIASFHQAEHSDLQGQKQYQLRGMATLEGYREQKAGSSLIRHAEEILRKKGADMLWCNARTTAAGYYKRLGFSEQGEVFDTPPVGPHILMYKRIT | 3.02 s⁻¹ | 800 µM |
| SEQ ID NO: 278: GAT polypeptide (protein, 10_2C7, GAT polypeptide) MIEVKPINAEDTYEIRHRILRPNQPLEACKYETDLLRGAFHLGGYYRGKLISIASFHQAEHPELEGQKQYQLRGMATLEGYREQKAGSTLIRHAEELLRKKGADLLWCNARTSASGYYKKLGFSEQGEVYDTPPVGPHILMYKKLT | 2.25 s⁻¹ | 1400 µM |
| SEQ ID NO: 477: GAT polypeptide (protein, 1_3D6, GAT polypeptide) MIEVKPINAEDTYELRHKILRPNQPIEACMYESDLLQGSFHLGGFYRGQLISIASFHQAEHSDLQGQKQYQLRGMATLEGFREQKAGSTLIKHAEEILRKKGADLLWCNARTSAAGYYKKLGFSEHGEIFDTPPAGPHILMYKKLT | 3.77 s⁻¹ | 3500 µM |
| SEQ ID NO: 478: GAT polypeptide (protein, 1_3F3, GAT polypeptide) MIEVKPINAEETYELRQRILRPNQPIEACMYESDLLRGSFHLGGFYRGQLISIASFHQAEHSELQGQKQYQLRGMATLEGYREQKAGSTLIKHAEEILRKKGADLLWCNARTSAAGYYKRLGFSEHGEIFDTPPVGPHILMYKRIT | 2.78 s⁻¹ | 1500 µM |
| SEQ ID NO: 479: GAT polypeptide (protein, 1_3H2, GAT polypeptide) MIEVKPINAEDTYELRHRILRPNQPIEACMYETDLLRGAFHLGGYYRGQLISIASFHKAEHSELQGQKQYQLRGMATLEGYREQKAGSTLIKHAEQLLREKGADMLWCNARTSAAGYYKRLGFSEQGEVFDTPPVGPHILMYKKLT | 2.13 s⁻¹ | 700 µM |
| SEQ ID NO: 480: GAT polypeptide (protein, 1_4C5, GAT polypeptide) MIEVKPINAEDTYELRHKILRPNQPIEACMYESDLLRGSFHLGGFYRGKLISIASFHKAEHSDLEGQNQYQLRGMATLEGYREQKAGSTLIRHAEEILRKRGADMLWCNARTSASGYYKRLGFSEHGEIFDTPPVGPHILMYKRLT | 4.23 s⁻¹ | 930 µM |
| SEQ ID NO: 481: GAT polypeptide (protein, 1_4D6, GAT polypeptide) MLEVKPINAEDTYELRHRILRPNQPIEACMYETDLLRGSFHLGGFYRGQLISIASFHKAEHSDLEGQKQYQLRGMATLEGYREQKAGSTLIRHAEQILRKRGADMLWCNARTSAAGYYKRLGFSEQGEVFETPPVGPHILMYKRLT | 2.28 s⁻¹ | 1400 µM |
